The record followed here is patent US20030186281A1, “Modified tetracycline repressor protein compositions and methods of use” (priority 2001, published 2003).

For the data set, the system named is tet operator sequence. The data set can be described thus: β-galactosidase activity of a tetracycline-regulated promoter in transformed E. coli with revTetR, in the presence and absence of anhydrotetracycline (atc). It is filed as cell-based, Escherichia coli. To be noted: for β-Galactosidase Activity, Cultured Without ATC: RevTetR isolate cultured in the absence of anhydrotetracycline (ATC); for β-Galactosidase Activity, Cultured With ATC: RevTetR isolate cultured in the presence of anhydrotetracycline (ATC). The procedure, abridged:
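TetR(BD) chimera mutants (TetR(B) residues 1–50, TetR(D) 51–208) expressed in E. coli regulating a tet operator-controlled lacZ. β-Galactosidase measured in Miller units at 28 °C and 37 °C with and without anhydrotetracycline; reported as percent of maximal expression without Tet repressor.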

Substitutions are numbered along the chain they refer to. Names and notes keep the numbering of the source.

B1: TetRrev6-2: revTetR(BD) D95G G96R H100L (protein)
chain: MSRLDKSKVINSALELLNEVGIEGLTTRKLAQKLGVEQPTLYWHVKNKRALLDALAVEILARHHDYSLPAAGESWQSFLRNNAMSFRRALLRYRGRAKVLLGTRPDEKQYDTVETQLRFMTENGFSLRDGLYAISAVSHFTLGAVLEQQEHTAALTDRPAAPDENLPPLLREALQIMDSDDGEQAFLHGLESLIRGFEVQLTALLQIV
modifications: Modified tetracycline repressor
notes: revTetR(BD) D95G G96R H100L
With B1, the “β-Galactosidase Activity, Cultured Without ATC” value turned out to be 95.487 and the “β-Galactosidase Activity, Cultured With ATC” value came out at 18.3.

B2: TetRrev4/6-25: revTetR(BD) I59S L60L R62G D95A V99L (protein)
chain: B1 chain with I59S, R62G, G95A, R96G, V99L, L100H
modifications: Modified tetracycline repressor
notes: revTetR(BD) I59S L60L R62G D95A V99L
For B2, the “β-Galactosidase Activity, Cultured Without ATC” value worked out at 102.926 and the “β-Galactosidase Activity, Cultured With ATC” value was determined as 3.433.

B3: TetRrev4/6-7: revTetR(BD) L55L L60V A97V V99G (protein)
chain: B1 chain with L60V, G95D, R96G, A97V, V99G, L100H
modifications: Modified tetracycline repressor
notes: revTetR(BD) L55L L60V A97V V99G
Turning to B3, the “β-Galactosidase Activity, Cultured Without ATC” value came to 86.036 and the “β-Galactosidase Activity, Cultured With ATC” value came out at 2.151.

B4: TetRrev4/6-6: revTetR(BD) D53Y V57V A61P (protein)
chain: B1 chain with D53Y, A61P, G95D, R96G, L100H
modifications: Modified tetracycline repressor
notes: revTetR(BD) D53Y V57V A61P
For the molecule B4, the “β-Galactosidase Activity, Cultured Without ATC” value came to 67.879 and the “β-Galactosidase Activity, Cultured With ATC” value was 3.197.

B5: TetRrev6-3: revTetR(BD) V99G H100P (protein)
chain: B1 chain with G95D, R96G, V99G, L100P
modifications: Modified tetracycline repressor
notes: revTetR(BD) V99G H100P
For the molecule B5, the “β-Galactosidase Activity, Cultured Without ATC” value is reported as 23.0695 and the “β-Galactosidase Activity, Cultured With ATC” value turned out to be 1.3657.

B6: TetRrev6-33: revTetR(BD) A97T K98R V99G (protein)
chain: B1 chain with G95D, R96G, A97T, K98R, V99G, L100H
modifications: Modified tetracycline repressor
notes: revTetR(BD) A97T K98R V99G
Turning to B6, the “β-Galactosidase Activity, Cultured Without ATC” value was 108.964 and the “β-Galactosidase Activity, Cultured With ATC” value is 2.984.

B7: TetRrev6-26: revTetR(BD) Y93F G96W A97E H100N (protein)
chain: B1 chain with Y93F, G95D, R96W, A97E, L100N
modifications: Modified tetracycline repressor
notes: revTetR(BD) Y93F G96W A97E H100N
As for B7, the “β-Galactosidase Activity, Cultured Without ATC” value was determined as 53.6535 and the “β-Galactosidase Activity, Cultured With ATC” value was 6.9688.

B8: TetRrev6-53: revTetR(BD) A97P K98R V99D (protein)
chain: B1 chain with G95D, R96G, A97P, K98R, V99D, L100H
modifications: Modified tetracycline repressor
notes: revTetR(BD) A97P K98R V99D
For B8, the “β-Galactosidase Activity, Cultured Without ATC” value amounted to 107.107 and the “β-Galactosidase Activity, Cultured With ATC” value was 27.918.

B9: TetRrev4/6-17: revTetR(BD) G99R V99L L101I (protein)
chain: B1 chain with G95D, V99L, L100H, L101I
modifications: Modified tetracycline repressor
notes: revTetR(BD) G99R V99L L101I
For the molecule B9, the “β-Galactosidase Activity, Cultured Without ATC” value was determined as 54.403 and the “β-Galactosidase Activity, Cultured With ATC” value came to 2.601.

B10: TetRrev6-51: revTetR(BD) A97T V99G (protein)
chain: B1 chain with G95D, R96G, A97T, V99G, L100H
modifications: Modified tetracycline repressor
notes: revTetR(BD) A97T V99G
On to B10, for which the “β-Galactosidase Activity, Cultured Without ATC” value is listed as 93.974 and the “β-Galactosidase Activity, Cultured With ATC” value stood at 4.499.

B11: TetRrev6-25: revTetR(BD) Y93S D95E G102A (protein)
chain: B1 chain with Y93S, G95E, R96G, L100H, G102A
modifications: Modified tetracycline repressor
notes: revTetR(BD) Y93S D95E G102A
Take B11: the “β-Galactosidase Activity, Cultured Without ATC” value is listed as 42.8584 and the “β-Galactosidase Activity, Cultured With ATC” value was 4.136.

B12: TetRrev6-35: revTetR(BD) D95Y V99E (protein)
chain: B1 chain with G95Y, R96G, V99E, L100H
modifications: Modified tetracycline repressor
notes: revTetR(BD) D95Y V99E
As to B12, the “β-Galactosidase Activity, Cultured Without ATC” value turned out to be 74.8797 and the “β-Galactosidase Activity, Cultured With ATC” value worked out at 7.0255.

B13: TetRrev6-23: revTetR(BD) D95E A97E (protein)
chain: B1 chain with G95E, R96G, A97E, L100H
modifications: Modified tetracycline repressor
notes: revTetR(BD) D95E A97E
As to B13, the “β-Galactosidase Activity, Cultured Without ATC” value is listed as 101 and the “β-Galactosidase Activity, Cultured With ATC” value worked out at 49.

B14: TetRrev6-54: revTetR(BD) Y93F D95N V99F (protein)
chain: B1 chain with Y93F, G95N, R96G, V99F, L100H
modifications: Modified tetracycline repressor
notes: revTetR(BD) Y93F D95N V99F
Turning to B14, the “β-Galactosidase Activity, Cultured Without ATC” value was 6.393 and the “β-Galactosidase Activity, Cultured With ATC” value was 1.268.

B15: TetRrev4/6-10: revTetR(BD) A56S V99E (protein)
chain: B1 chain with A56S, G95D, R96G, V99E, L100H
modifications: Modified tetracycline repressor
notes: revTetR(BD) A56S V99E
Turning to B15, the “β-Galactosidase Activity, Cultured Without ATC” value is 97.964 and the “β-Galactosidase Activity, Cultured With ATC” value was determined as 6.149.

B16: TetRrev6-38: revTetR(BD) Y93H G96W K98Q V99G (protein)
chain: B1 chain with Y93H, G95D, R96W, K98Q, V99G, L100H
modifications: Modified tetracycline repressor
notes: revTetR(BD) Y93H G96W K98Q V99G
B16: the “β-Galactosidase Activity, Cultured Without ATC” value came to 96.194 and the “β-Galactosidase Activity, Cultured With ATC” value turned out to be 46.91.

B17: TetRrev4/6-4: revTetR(BD) D95A V99G V57V A61G (protein)
chain: B1 chain with A61G, G95A, R96G, V99G, L100H
modifications: Modified tetracycline repressor
notes: revTetR(BD) D95A V99G V57V A61G
Take B17: the “β-Galactosidase Activity, Cultured Without ATC” value is listed as 96.491 and the “β-Galactosidase Activity, Cultured With ATC” value was determined as 1.639.

B18: TetRrev6-50: revTetR(BD) V99G (protein)
chain: B1 chain with G95D, R96G, V99G, L100H
modifications: Modified tetracycline repressor
notes: revTetR(BD) V99G
With B18, the “β-Galactosidase Activity, Cultured Without ATC” value is recorded as 60.464 and the “β-Galactosidase Activity, Cultured With ATC” value came out at 2.469.

B19: TetRrev4/6-15: revTetR(BD) A56S I59A L60W V99V (protein)
chain: B1 chain with A56S, I59A, L60W, G95D, R96G, L100H
modifications: Modified tetracycline repressor
notes: revTetR(BD) A56S I59A L60W V99V
B19: the “β-Galactosidase Activity, Cultured Without ATC” value was found to be 66.054 and the “β-Galactosidase Activity, Cultured With ATC” value worked out at 7.647.

B20: TetRrev4/6-3: revTetR(BD) D95A V99G (protein)
chain: B1 chain with G95A, R96G, V99G, L100H
modifications: Modified tetracycline repressor
notes: revTetR(BD) D95A V99G
For B20, the “β-Galactosidase Activity, Cultured Without ATC” value came to 69.291 and the “β-Galactosidase Activity, Cultured With ATC” value stood at 0.878.

B21: TetRrev6-32: revTetR(BD) L79V A97T K98R V99G (protein)
chain: B1 chain with L79V, G95D, R96G, A97T, K98R, V99G, L100H
modifications: Modified tetracycline repressor
notes: revTetR(BD) L79V A97T K98R V99G
B21: the “β-Galactosidase Activity, Cultured Without ATC” value was determined as 79.3731 and the “β-Galactosidase Activity, Cultured With ATC” value is 3.789.

B22: TetRrev4/6-5: revTetR(BD) A54S V99R (protein)
chain: B1 chain with A54S, G95D, R96G, V99R, L100H
modifications: Modified tetracycline repressor
notes: revTetR(BD) A54S V99R
B22: the “β-Galactosidase Activity, Cultured Without ATC” value worked out at 97.92 and the “β-Galactosidase Activity, Cultured With ATC” value is 5.7.

B23: TetRrev6-31: revTetR(BD) G96Q G102S (protein)
chain: B1 chain with G95D, R96Q, L100H, G102S
modifications: Modified tetracycline repressor
notes: revTetR(BD) G96Q G102S
Turning to B23, the “β-Galactosidase Activity, Cultured Without ATC” value is 55.658 and the “β-Galactosidase Activity, Cultured With ATC” value was determined as 35.26.

B24: TetRrev6-37-1: revTetR(BD) G96R A97S V99L (protein)
chain: B1 chain with G95D, A97S, V99L, L100H
modifications: Modified tetracycline repressor
notes: revTetR(BD) G96R A97S V99L
Take B24: the “β-Galactosidase Activity, Cultured Without ATC” value is reported as 55.277 and the “β-Galactosidase Activity, Cultured With ATC” value was 20.04.

B25: TetRrev6-34: revTetR(BD) R94L D95A H100 (protein)
chain: B1 chain with R94L, G95A, R96G, L100Q
modifications: H100 change unspecified; Modified tetracycline repressor
notes: revTetR(BD) R94L D95A H100
Consider B25, for which the “β-Galactosidase Activity, Cultured Without ATC” value came to 85.725 and the “β-Galactosidase Activity, Cultured With ATC” value stood at 40.254.

B26: TetRrev4/6-24: revTetR(BD) A61T V99R (protein)
chain: B1 chain with A61T, G95D, R96G, V99R, L100H
modifications: Modified tetracycline repressor
notes: revTetR(BD) A61T V99R
As to B26, the “β-Galactosidase Activity, Cultured Without ATC” value was determined as 95.596 and the “β-Galactosidase Activity, Cultured With ATC” value was found to be 2.428.

B27: TetRrev6-27: revTetR(BD) A71T G96E (protein)
chain: B1 chain with A71T, G95D, R96E, L100H
modifications: Modified tetracycline repressor
notes: revTetR(BD) A71T G96E
For B27, the “β-Galactosidase Activity, Cultured Without ATC” value is 108.105 and the “β-Galactosidase Activity, Cultured With ATC” value is on record as 44.43.
